Measured values from the nanobody polyreactivity screen of Harvey et al. (2022).

Test: yeast display, Sf9 membrane polyspecificity reagent, FACS + sequencing; frameworks hold sequencing errors
Outline: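 Galactose induction of a Saccharomyces cerevisiae BJ5465 synthetic nanobody display library ran 36–48 hours. The cells were then stained for 1 hour at 4 °C with 10% biotinylated, detergent-solubilized Sf9 membrane reagent, pulled down on streptavidin microbeads and FACS-sorted into low and high (top ~1%) gates on expression and reagent-binding fluorescence. Labels for polyreactivity follow the gate of origin.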

| Sequence | polyreactivity (PSR sort gate) |
| --- | --- |
| QIQLVESGGGLVQAGGSLRLSCAASGFTFYYYVMGWYRQAPGKERELVAAISSRGGSTYYADSVKGRFTISRDNAKNTVYLQMNSLKPEDTAVYYCAATYWPYRPGYYYWGQGTQVTVSS | high polyreactivity |
| QVQLEEAGGGLVQAGGSLRLSCAASGRTFFENAMGWYRQAPGKEREFVAAISYNGGSTYYADSVKGRFTISRDNAKNTVYLQMNSMKPDDTAVYYCAADPNYGYDYWGQGTQVTVSS | low polyreactivity |
| QVQLVESGGGLVQAGGSLRLSCAASGSTFGFNAMGWYRQAPGKERELVAAINSGSTTYADSVKGRFTISRDNAKNTVYLQMNSLKPEDTAVYYCAARYRYRYGYYYWGQGTQVTVSS | high polyreactivity |
| QVQLVESGGGLVQAGGSLRLSCDASGSTFRWYTMGWYRPAPGKEREVVATISRSGGSTYNADSVKGRFTISRDNAKNTVYLQMNSLKPEDTAVYYCNKLGVSTHSYKYYYWGQGTQVTVSS | high polyreactivity |
| QVQLVESGGGLVQAGGSLRLSCAASGITFITYTMGWYRQEPGKERELVAGISSGGSTYYADSVKGRFTISRDNAKNTVYLQMNSLKPEDTAVYYCAAEFAGWGYYWFDYWGQGTQVTVSS | high polyreactivity |
| QVQLVESGGGLVQAGGSLRLSCAASGRIFPYYAKGWYRQAPGKERELVAAINSGGSTYYADSVKGRFTISRDNAQNTVYLQMNSLKPEDTAVYYCIADVLYEDGFFWDDYWGQGTQVTVSS | low polyreactivity |
| QVQLVESGGGLVQAGGSLRLSCAASGAIFPSYVMGWYRPAPGKERELVAAITKSTGTTYYADSVKGRFTISRDNAKNTVYLQMNSLKPEDTAVYYCAASGSWSTNTAIYKFYYWGQGTQVTVSS | low polyreactivity |
| QVQLVESGGGLVQAGGSLRLRCAASGRIFGYNDMGWYRQAPGKERELVAAINWTGGSTYYADSVKARFTISRDNSKNTVYLQMNSLKPEDTAVYYCNADARTKWVQTHTDFISDYDYWGQGTQVTVSS | low polyreactivity |
| QVQLVESGGGLVQAGGSLRLSCAASGRTFYDNAMRWYRQAPGKERELDAAITNGGRTNYADSVKGRFTISRDNAKNTVYLQMNSLKPEDTAVYYCAADFWPWYRYYSGGVDYWGQGTQVTVSS | high polyreactivity |
| QVQLVESGGGLVQAGGSLRLSCAASGSTFLGYTMGWYRQAPGKERELVAAISRRGSSTYYADSVKGRFTISRDNAKNTVYLQMNSLKPEDTAVYYCAAYATSFRDGYWGQGTQVTVSS | high polyreactivity |
| QVQLVESGGGLVQAGGSLRLSCAASGSIFYSNAMGWYRQAPGKERELVADISWSDGSTYYADSVKGRFTISRDNAKNNVYLQMNSLKPEDTEVYYCARKAGYSYFRRYDYWGQGTQVTVSS | low polyreactivity |
| QVQLVESGGGLVQAGGSLRLSCAASGRTFKKYAMGWYRQAPGKERELVSAITGSVGSTYYADSVKGRFTISRDNAKNTVYLQMNSLIPEDTAVYYCAAYAYGVWHSQDGGNYWGQGTQVTVSS | low polyreactivity |
| QVHLVESGGRLVQAGGSIRLSCAASGLTYGSYAMGWYRQAPGKERELVAAIYQSGGSTYYADSVMARFTISRDNANNTVYLQMNRLKPEDTVVYYCNAEAWVTLDWWQWVAYDFWGQGTQVTVSS | high polyreactivity |
| QVQLVESGGGLVQAGGSLRLICAASGSIFYYYAMGWYRQAPGKERELVATITWNGAGTFYADSVKGRFTISRDNAKNTVYLQMNSLKPEDTSVYYCAASWYGESGYEYWGQGTQVTVSS | low polyreactivity |
| QVQLVESGGGLVQAGGSLRLSCAASGSIFSYYDMGWYRQAPGKERELVAGISRGGSTNYADSVKGRFTISRDNAKNTVYLQMNSLKPEDTAVYYCNADQSSRTYPFRRSRRSWLYGYWGQGTQVTVSS | low polyreactivity |
| QLQLVESGGGLVQAGGSLRLSCAASGRIFYVNAMGWYRQAPGKERELVASITDGSSTYYADSVKGRFTISRDNAKNTVYLQMNILKPEDTAVYYCAVRAAYWGAHYYYWGQGTQVTVSS | high polyreactivity |
| QDQLVESGGGLVQAGGSLRLSCAASGSIFNVNTMGWYRQAPGKERGLVAAISYSGGSTYYADSVKGRFTISRDNAKNTVYLQMNSLKPEETAVYYCNVSPTTSGDGGGYDSWGQGTQVTVSS | low polyreactivity |
| QVQLVESAGGLVQAGGSLRVRCAASGGIFSGNDMGWYRQAPGKERELVATITSDGSTNYADSVKGRFTISRDNAKNTVYLQMNSLKPEDTAVYYCAADGLYWWMYYWGQGTQVTVSS | low polyreactivity |
| QVQLVESGGGLVQAGGSLRLSCAASGRTFKKYAMGWYRQAPGKERELVAAITSRGGSTYYADSVKGRFTISRDNAKNTVYLQMNSLKPEDTAVYYCNAVRGWLYVFSYPYWDDEYWGQGTQVTVSS | high polyreactivity |
| QVQLVESGGGLVQAGGSLRLSCAASGRILHHYAMGWYIQAHGKERELVAAIRWGGGSTYYADSVKGRFTISRDNAKNTVYLQMNSLKPEDTAVYYCAAEVVAGYDYSQYYYWGQCTQVTVSS | low polyreactivity |

| Sequence | polyreactivity (PSR sort gate) |
| --- | --- |
| QVQLVESGGGLVQAGGSLRLSCAPSGSTFQYYAMGWYRQAPGKESELVATITRRGDSTYYADSVKGRFTISRDSAKNTVYFQMNSLKPEDTAVYYCATRYWRSGYDWPYGSWGQGTQETVSS | high polyreactivity |
| QVQLVESGGGLVQAGGSLRLSCAASGRIFYFYAMGWYRQAPGKERELVAAISRRGGTTNYADSVKGRFTISRDNAKNTVYLQMNSLKPEDTAVYYCAADYQSVGGAEYDYWGQGTQVTVSS | high polyreactivity |
| QVQHVESGGGLVQAGGSLRLSCAASGFIFYDKAMGRYRTAPGKERELVAGITYRTGSTFYADSVKGRFTISRDNAKNTVYLQMISLKPEDTAVFYCAAVRRISWYTPVNTRRYYYWGQGTQVTVSS | high polyreactivity |
| QVQLVESGGGLVQAGGSLRLSCAASGFIFGHNTMGWYRPAPGKERELVAAIDGGGGTSYADSVKGRFTISRDNAKNTVYLQMNSLKPEDTAVYYCAAYVAKGPLEYYYHYPYDYWGQGTQVTVSS | low polyreactivity |
| QVQLVESGVGLVQAGGSLRLSCAASGFILTAYDMGWYRQAPGKERELVAAIDWIGGSTYYADSVKGRFTISRDNAKNTVYLQMNSLKPEDTAVYYCAARFYSYVYRLDYWGQGTQVTVSS | low polyreactivity |
| QVQLVESGGGLVQAGGSLRLSCAASGRIFKYYAMGWYRQAPGKERELVAAINRDGGRTYYADSVKGRFTISRDNAKNTVYLQMNRLKPDDTAVYYCAASYGYWGQGSQVTVSS | low polyreactivity |
| QVQLVESGGGLVQAGGSLRLSCAASGSIFSTYAMGWSRQAPGKERELVAAINRSGGSTTYADSVKGRCTISRDNAKNTVYLQMNSLKPEDTAVYYCAKAFRGHYWGQGTQVSVSS | high polyreactivity |
| QVQLVESGGGLVQAGGSLRLSCAASGRIFYPYAMGWYRQAPGKERELVAAIRISGGSTYYADSVKGRFTISRDNAKNTVYLQMISLNPEDTAVYYCNASARLQPAYSWFYYWGQGTQVTVSS | high polyreactivity |
| QVQLVESGGGLVQAGGSLRLSCAASGLTLDYYAMGWSRQGPGKERELVAVIRGRSGSTYYADSVKGRFTISRDNAKNTDYLQMNSLKPEDTAVYYGARVTTYGDYYWGQGTQVTVSS | high polyreactivity |
| QVQLVESGGGLVQAGGSLRLSCAASGFTFKYYVKGWYRQAPGKERELVAAISSNGGTTYYADSVKGRFTISRDNAKNTVYVQMNSLKPEDTAVYYCAAEPGQEYVVGYSYWGQGSQVTVSS | high polyreactivity |
| QLQLVESGGGLVQAGGSLRLSCAASGSTIDHNAMGWYRQAPGKERELVATISSSGGSTYYADSVKGRFTISRDNAKNTVYFQMNSLKPEDTAGYDCNRYFRRGGRYPYNYWGQGTQVTVSS | high polyreactivity |
| QVQLVESGGGLVQAGGSLRLSCAASGSTFDDNAMGWYRQAPGKERELVASITYRGGSTYYADSVKGRFTISRDNAKNTVYLQMNSLKPEDTAVYYCNADYTGAEYDYWGQGTQVTVSS | low polyreactivity |
| QVQLVESGGGLVQAGCSLRLSCAASGFIFYWYAMVWKRQAPGKERELVAAISYDTGSTYYADSVKGRFTISRDKAKNSVYLPMNSLKPEDTAVYYCAADVYYKYYYWGQGSQVTVSS | high polyreactivity |
| QVQLVESGGGLVQAGGSLRFSCAASGSIFGKNAIGWYRQAPGKERELVAAITRSGGSTYYADSVKGRFTISRDNAKNTVYLQMNSLKPEDTAVYYCNAVRVRVTSHRIRQLDYGYWGQGTQVTVSS | low polyreactivity |
| QVQLEESGGGLDQAGGSLRLNCAASGLISVYYVRGWYIQAPGKELELVAAINRSGGNTYYADSVKGRFTISRDNAQNTVNLQMNRLKPDVTAVYYCKASLYFYRYGHDYESDYWGQGTQVTVSS | high polyreactivity |
| QVQLVESGGGLVQAGGSLRLSSAASGRIFKKNSMGWYRQAPGKERELVAAINWTGGSTYYADSVKGRFTISRDNAMNTVYLQLNSLKPEDTAFYYCAVGVYPSYRGPTFSTRRDYWGQGTQVTVSS | low polyreactivity |
| QVQLVESGGGLVQAGGSLRLSCAASGYTFWQYAMGWYRQAPGKERELVATITSRGGSTYYADSVKGRFTISRDNAKNTVYLQMNSLKPEDTAVYYCNARRRYSTRRSDYWGQGTQVTVSS | high polyreactivity |
| QVQLVESGGGLVQAGGSLRLSCAASGSTFRWYAMGWYRQAPGKERELVAAITSSGSTYYADSVKGRFTISRDNAKNTVYLQMNSLKPEDTAVYYCAARANGYWNTYEHDYWGQGIQVTVSS | low polyreactivity |
| QVQLVESGGGLVQAGGSLRLSCAASGLTFYLYVMGWYRQAPWKERELVAAISRRGGSTYYADSVKGRFTISRDNAKNTVYLQMNSLKPEDTAVYYCAARVYGTYRGIQYGYWGQGTQVTVSS | high polyreactivity |
| QVQLVESGGGLVQAGGSLRLSCAASGRTLNDYAMEWYRQAPGKERELVAGITSGDSTYYADSVKGRFTISRDNAKNTVYLQMNSLIPEDTAVYYCAADSDTFYYTGYDYDYWGQGTQVTVSS | low polyreactivity |
